Source: US20250346685A1 (published 2025)
Positions count from the first letter of the chain named.

What was measured:
[1] = molecular target: T1, human CD3εγ-Fc heterodimer (human); assay: ELISA, coated human CD3εγ recombinant protein
T1 construct: also called human CD3εγ recombinant protein; human CD3εγ protein
T1 chain 1: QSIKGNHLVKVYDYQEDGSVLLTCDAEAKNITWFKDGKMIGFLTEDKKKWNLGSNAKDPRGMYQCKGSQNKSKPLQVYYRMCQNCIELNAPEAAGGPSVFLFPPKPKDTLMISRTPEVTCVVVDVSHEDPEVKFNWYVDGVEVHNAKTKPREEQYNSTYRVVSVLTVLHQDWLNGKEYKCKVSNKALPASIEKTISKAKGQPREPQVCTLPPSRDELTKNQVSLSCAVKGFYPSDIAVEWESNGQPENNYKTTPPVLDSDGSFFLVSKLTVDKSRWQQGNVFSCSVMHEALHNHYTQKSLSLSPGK
T1 chain 2: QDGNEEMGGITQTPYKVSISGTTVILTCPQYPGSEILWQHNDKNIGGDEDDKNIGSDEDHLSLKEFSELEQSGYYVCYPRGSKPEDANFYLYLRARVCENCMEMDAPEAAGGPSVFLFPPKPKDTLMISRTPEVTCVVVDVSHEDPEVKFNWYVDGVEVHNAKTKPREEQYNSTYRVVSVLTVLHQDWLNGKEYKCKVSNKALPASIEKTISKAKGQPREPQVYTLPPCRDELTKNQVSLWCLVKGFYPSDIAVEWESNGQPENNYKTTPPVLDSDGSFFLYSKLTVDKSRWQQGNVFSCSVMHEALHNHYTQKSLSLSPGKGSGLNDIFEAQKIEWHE
Procedure: (§1) Human CD3εγ recombinant protein was coated overnight at 4° C. After blocking with 2% skim milk, different dilutions of CD3 antibody were added to each well and incubated for 1 hour. After the secondary antibody was developed by adding HPR-labeled goat anti-human IgG Fc and TMB solution, the reaction was stopped with concentrated sulfuric acid and the absorbance was read at 450 nm.

[2] = molecular target: T2, human CD3 on T cells (Jurkat cells; human peripheral blood CD4+ and CD8+ T-cells) (human, UniProt P07766 23-207); assay: flow cytometry on Jurkat cells
T2 construct: whole, on cells; also called CD4T; CD4 + T
Procedure: Jurkat cells in logarithmic growth phase were blocked with 3% BSA for 30 min, added to 96-well U-plate at 5×10^4 cells per well, centrifuged to discard the supernatant, and added with 50 μL of gradient diluted antibody (antibody concentration:from 30 μg/mL, with 3-fold dilution for 5 gradients) per well, and incubated at 4° C. for 1 hour. After washing off the primary antibody, a 1:300 dilution of Alexa Fluro647 labeled goat anti-human IgG Fc (Jackson ImmunoResearch, 109-606-170) was added to the secondary antibody, incubated for 45 min at 4° C., and, after washing, resuspended in 50 μL of PBS per well for FACS (iQue, intellicyt) detection.

[3] = molecular target: T3, Cynomolgus monkey CD3εγ-Fc heterodimer (cynomolgus monkey); assay: ELISA, coated cynomolgus monkey CD3εγ protein
T3 construct: also called cynomolgus monkey CD3εγ protein
T3 chain 1: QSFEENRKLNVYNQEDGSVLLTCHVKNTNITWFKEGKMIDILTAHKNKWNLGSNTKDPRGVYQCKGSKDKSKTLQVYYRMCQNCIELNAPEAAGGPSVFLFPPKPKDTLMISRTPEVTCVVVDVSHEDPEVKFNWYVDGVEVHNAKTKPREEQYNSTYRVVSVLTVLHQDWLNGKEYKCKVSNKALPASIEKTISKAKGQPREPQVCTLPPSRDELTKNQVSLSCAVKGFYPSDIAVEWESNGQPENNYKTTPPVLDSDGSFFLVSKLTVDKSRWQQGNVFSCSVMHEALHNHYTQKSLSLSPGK
T3 chain 2: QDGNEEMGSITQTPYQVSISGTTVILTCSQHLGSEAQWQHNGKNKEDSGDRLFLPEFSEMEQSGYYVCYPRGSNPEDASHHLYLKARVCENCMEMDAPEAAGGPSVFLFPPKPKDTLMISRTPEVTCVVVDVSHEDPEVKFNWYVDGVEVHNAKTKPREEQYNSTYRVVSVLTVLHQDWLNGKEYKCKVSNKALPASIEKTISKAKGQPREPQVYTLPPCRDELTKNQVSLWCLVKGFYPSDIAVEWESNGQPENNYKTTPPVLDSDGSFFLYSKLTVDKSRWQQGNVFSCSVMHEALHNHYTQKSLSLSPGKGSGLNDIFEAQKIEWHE
Procedure: as §1, with “CD3εγ” for “CD3εγ recombinant”, “protein and cynomolgus monkey CD3εγ protein were” for “protein was”, “coated separately” for “coated”, “sulfuric acid,” for “sulfuric acid”

[4] = molecular target: T4, cynomolgus monkey CD20 on CHO stably transfected cells (cynomolgus monkey, UniProt M4ZHZ6 1-297); assay: flow cytometry on CHO-cynomolgus monkey CD20 stably transfected cells
T4 construct: whole, on cells; also called Cynomolgus monkey CD20-CHO; CHO-cynomolgus monkey CD20
T4 sequence: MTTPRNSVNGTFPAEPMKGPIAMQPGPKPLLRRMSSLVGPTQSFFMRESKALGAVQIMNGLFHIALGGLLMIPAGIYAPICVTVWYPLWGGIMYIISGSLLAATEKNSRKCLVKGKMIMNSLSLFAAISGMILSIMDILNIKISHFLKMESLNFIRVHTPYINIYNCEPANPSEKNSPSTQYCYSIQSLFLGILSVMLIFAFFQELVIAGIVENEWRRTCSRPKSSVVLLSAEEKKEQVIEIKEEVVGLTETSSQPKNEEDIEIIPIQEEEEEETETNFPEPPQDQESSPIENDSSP
Procedure: (§2) CHO-human CD20 and CHO-cynomolgus monkey CD20 stably transfected cells prepared in Example 1 in logarithmic growth phase were adjusted to 5×10⁵ cells/ml with 4% calf serum (Hyclone, SH30626.06), 100 μl/well cell suspension was added to 96-well U-plate, 300 g thereof was centrifuged for 5 min, the supernatant was discarded, and 100 μL of gradient diluted antibody (with starting concentration of 1800 nM, 3-fold dilution, 10 gradients) was added to each well and incubated at 4° C. for 60 min. 50 μL/well Alexa Fluro647 labeled goat anti-human IgG Fc (1:300 dilution) was added to the secondary antibody and incubated on ice for 20 min. After washing once, 50 μL/well propidium iodide (PI) solution (1:300) was added, incubated for 5 min, and performed with detection by flow cytometry.

[5] = molecular target: T5, human CD20 on cells (CHO-human CD20 stably transfected cells; SU-DHL-4, Raji, NALM-6 tumor cells) (human, UniProt P11836 1-297); assay: flow cytometry on CHO-human CD20 stably transfected cells
T5 construct: whole, on cells; also called Human CD20-CHO; cellular CD20 receptor
T5 sequence (looked up): T4 sequence with P25S, L31F, A51T, V157A, R217K, S226N, V227I, V239T
Procedure: as §2

B1: aCD3-hVH9/VL2 (antibody, human IgG4, V domains shown)
VH: EVQLVESGGGLVQPGGSLRLSCAASGFTFNTYAMNWVRKAPGKGLEWVGRIRSKYNNYATYYADSVKDRFTISRDDSKNSLYLQMNSLKTEDTAVYYCVRHGNFGNSYVSWFAYWGQGTLVTVSS
VL: QAVVTQEPSLTVSPGGTVTLTCRSSTGAVTTSNYANWVQEKPGQAPRGLIGGTNKRAPWTPARFSGSLLGGKAALTLSGAQPEDEAEYYCALWYSNLWVFGGGTKLTVL
notes: also called humanized anti-CD3 antibody hVH9/VL2
- affinity (ELISA) [1]: 0.44 nM
- affinity (FACS) [2]: 25 nM
- binding result [3]: binds

B2: aCD3-hVH9/VL5 (antibody, human IgG4, V domains shown)
VH: B1 VH
VL: B1 VL with L77I, S78T, P82A, A91V
notes: also called humanized anti-CD3 antibody hVH9/VL5
- affinity (ELISA) [1]: 0.42 nM
- affinity (FACS) [2]: 20 nM
- binding result [3]: binds

B3: CD20 × CD3 κλ001 (bispecific antibody, human IgG4 S228P, kappa, lambda)
light 1: not shown
heavy 1: EVQLLESGGGVVQPGGSLRLSCAASGFTFNDYAMHWVRQAPGKGLEWVSTISWNSGSIGYADSVKGRFTISRDNSKNTLYLQMNSLRAEDTAVYYCAKDIQYGNYYYGMDYWGQGTLVTVSSASTKGPSVFPLAPCSRSTSESTAALGCLVKDYFPEPVTVSWNSGALTSGVHTFPAVLQSSGLYSLSSVVTVPSSSLGTKTYTCNVDHKPSNTKVDKRVESKYGPPCPPCPAPEFEGGPSVFLFPPKPKDTLMISRTPEVTCVVVDVSQEDPEVQFNWYVDGVEVHNAKTKPREEQFNSTYRVVSVLTVLHQDWLNGKEYKCKVSNKGLASSIEKTISKAKGQPREPQVCTLPPSQEEMTKNQVSLSCAVKGFYPSDIAVEWESNGQPENNYKTTPPVLDSDGSFFLVSKLTVDKSRWQEGNVFSCSVMHEALHNHYTQKSLSLSLGK
light 2: QAVVTQEPSLTVSPGGTVTLTCRSSTGAVTTSNYANWVQQKPGQAPRGLIGGTNKRAPWTPARFSGSLLGGKAALTITGAQAEDEAEYYCVLWYSNLWVFGGGTKLTVLGQPKAAPSVTLFPPSSEELQANKATLVCLISDFYPGAVTVAWKADSSPVKAGVETTTPSKQSNNKYAASSYLSLTPEQWKSHRSYSCQVTHEGSTVEKTVAPTECS
heavy 2: EVQLVESGGGLVQPGGSLRLSCAASGFTFNTYAMNWVRQAPGKGLEWVGRIRSKYNNYATYYADSVKDRFTISRDDSKNSLYLQMNSLKTEDTAVYYCVRHGNFGNSYVSWFAYWGQGTLVTVSSASTKGPSVFPLAPCSRSTSESTAALGCLVKDYFPEPVTVSWNSGALTSGVHTFPAVLQSSGLYSLSSVVTVPSSSLGTKTYTCNVDHKPSNTKVDKRVESKYGPPCPPCPAPEFEGGPSVFLFPPKPKDTLMISRTPEVTCVVVDVSQEDPEVQFNWYVDGVEVHNAKTKPREEQFNSTYRVVSVLTVLHQDWLNGKEYKCKVSNKGLASSIEKTISKAKGQPREPQVYTLPPCQEEMTKNQVSLWCLVKGFYPSDIAVEWESNGQPENNYKTTPPVLDSDGSFFLYSKLTVDKSRWQEGNVFSCSVMHEALHNHYTQKSLSLSLGK
notes: also called anti-CD20×CD3 κλ bispecific antibody
- EC50 [4]: 12 nM
- EC50 [5]: 10 nM

B4: CD20 × CD3 κλ005 (bispecific antibody, human IgG4 S228P, kappa, lambda)
light 1: not shown
heavy 1: B3 heavy 1
light 2: B3 light 2 with Q40E
heavy 2: B3 heavy 2 with Q39K
notes: Human IgG4 knob-into-hole Fc; charge variants only in the CD3 arm; also called anti-CD20×CD3 κλ bispecific antibody
- EC50 [4]: 14 nM
- EC50 [5]: 9 nM
